Source: PMC3234919 (The Journal of Biological Chemistry, 2011)

B1: human peroxiredoxin IV C51A mutant (residues 37-271 of the preprotein) (enzyme, UniProt Q13162 37-271, looked up)
chain: GWETEERPRTREEEAHFYAGGQVYPGEASRVSVADHSLHLSKAKISKPAPYWEGTAVIDGEFKELKLTDYRGKYLVFFFYPLDFTFVCPTEIIAFGDRLEEFRSINTEVVACSVDSQFTHLAWINTPRRQGGLGPIRIPLLSDLTHQISKDYGVYLEDSGHTLRGLFIIDDKGILRQITLNDLPVGRSVDETLRLVQAFQYTDKHGEVCPAGWKPGSETIIPDPAGKLKYFDKLN
B2: human peroxiredoxin IV C245A resolving cysteine mutant, sulfenylated at the peroxidatic cysteine (enzyme, UniProt Q13162 37-271, looked up)
chain: GWETEERPRTREEECHFYAGGQVYPGEASRVSVADHSLHLSKAKISKPAPYWEGTAVIDGEFKELKLTDYRGKYLVFFFYPLDFTFVCPTEIIAFGDRLEEFRSINTEVVACSVDSQFTHLAWINTPRRQGGLGPIRIPLLSDLTHQISKDYGVYLEDSGHTLRGLFIIDDKGILRQITLNDLPVGRSVDETLRLVQAFQYTDKHGEVAPAGWKPGSETIIPDPAGKLKYFDKLN
modifications: cysteine sulfenic acid at Cys-124 (peroxidatic cysteine)
B3: human peroxiredoxin IV, wild type, full-length mature protein (residues 37-271 of the preprotein) (enzyme, UniProt Q13162 37-271, looked up)
chain: GWETEERPRTREEECHFYAGGQVYPGEASRVSVADHSLHLSKAKISKPAPYWEGTAVIDGEFKELKLTDYRGKYLVFFFYPLDFTFVCPTEIIAFGDRLEEFRSINTEVVACSVDSQFTHLAWINTPRRQGGLGPIRIPLLSDLTHQISKDYGVYLEDSGHTLRGLFIIDDKGILRQITLNDLPVGRSVDETLRLVQAFQYTDKHGEVCPAGWKPGSETIIPDPAGKLKYFDKLN
B4: human peroxiredoxin IV C245A resolving cysteine mutant, reduced (enzyme, UniProt Q13162 37-271, looked up)
chain: GWETEERPRTREEECHFYAGGQVYPGEASRVSVADHSLHLSKAKISKPAPYWEGTAVIDGEFKELKLTDYRGKYLVFFFYPLDFTFVCPTEIIAFGDRLEEFRSINTEVVACSVDSQFTHLAWINTPRRQGGLGPIRIPLLSDLTHQISKDYGVYLEDSGHTLRGLFIIDDKGILRQITLNDLPVGRSVDETLRLVQAFQYTDKHGEVAPAGWKPGSETIIPDPAGKLKYFDKLN
B5: PrxIII (enzyme, UniProt P30048 62-256, looked up)
chain: APAVTQHAPYFKGTAVVNGEFKDLSLDDFKGKYLVLFFYPLDFTFVCPTEIVAFSDKANEFHDVNCEVVAVSVDSHFSHLAWINTPRKNGGLGHMNIALLSDLTKQISRDYGVLLEGSGLALRGLFIIDPNGVIKHLSVNDLPVGRSVEETLRLVKAFQYVETHGEVCPANWTPDSPTIKPSPAASKEYFQKVNQ

Columns and labels:
[1] = biological target: the molecule itself; assay: crystal structure
[2] = biological target: the molecule itself; assay: crystal structure; remark: listed apart in the source
[3] = biological target: the molecule itself; assay: SEC

Row | Protein | stoichiometry N [1] | stoichiometry N [3] | further results
1 | B1 | 10 |  | 
2 | B2 |  |  | stoichiometry N [2]: 10
3 | B3 |  | 10 | 
4 | B4 | 10 |  | 
5 | B5 |  | 2 | 
